molecular target: HLA-A*02:01 (Homo sapiens, UniProt P04439, D140Y/D185E/D98H/E176V/E277Q/G131W/G231S/I119V/I121R/I166T/I218V/L300P/L318F/N151K/N90K/P208A/P217A/Q86G/Q94H/R138H/R169H/T345S); experiment: MHC binding assay (UV-ligand exchange, β2m ELISA, peptide exchange yield); details: MHC class I binding score; binding to HLA-A*02:01 ranged by peptide exchange yield (UV-ligand exchange, β2m ELISA)
Outline: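 Peptide–HLA-A*02:01 complexes were formed by UV-mediated exchange of a UV-cleavable ligand for the test peptide. Exchange yield was measured by capturing complexes on streptavidin, detecting with HRP anti-β2m antibody (1 h, 37°C) and reading TMB absorbance at 450 nm.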

Substance | Peptide exchange
67 (TLLAEALVTV; listed as Homo sapiens) [compound 67] | “+++” (≧50 = +++)
87 (ALPEAPAPLLPHIT; listed as Homo sapiens) [compound 87] | “++” (≧20% = ++)
271 (LVYPLELYPA; listed as Homo sapiens) [compound 271] | “+++” (≧50 = +++)
72 (SLLELDGINL; listed as Homo sapiens) [compound 72] | “+++” (≧50 = +++)
165 (SLLDEIRAV; listed as Homo sapiens) [compound 165] | “+++” (≧50 = +++)
244 (SLFGGTEITI; listed as Homo sapiens) [compound 244] | “+++” (≧50 = +++)
254 (TLLAFIMEL; listed as Homo sapiens) [compound 254] | “+++” (≧50 = +++)
230 (ILVDWLVEV; listed as Homo sapiens) [compound 230] | “+” (≧10% = +)
119 (FLYIGDIVSL; listed as Homo sapiens) [compound 119] | “++++” (≧75% = ++++)
275 (YLVYILNEL; listed as Homo sapiens) [compound 275] | “++” (≧20% = ++)
240 (ILLEQAFYL; listed as Homo sapiens) [compound 240] | “+++” (≧50 = +++)
233 (VLSETLYEL; listed as Homo sapiens) [compound 233] | “++” (≧20% = ++)
134 (YLQELIFSV; listed as Homo sapiens) [compound 134] | “+++” (≧50 = +++)
117 (ILPDGEDFLAV; listed as Homo sapiens) [compound 117] | “+++” (≧50 = +++)
136 (YLADPSNLFVV; listed as Homo sapiens) [compound 136] | “+++” (≧50 = +++)
21 (VLDELDMEL; listed as Homo sapiens) [compound 21] | “++” (≧20% = ++)
266 (KITDTLIHL; listed as Homo sapiens) [compound 266] | “+++” (≧50 = +++)
24 (SLSDGLEEV; listed as Homo sapiens) [compound 24] | “++” (≧20% = ++)

Substance | Peptide exchange
132 (LLVEQPPLAGV; listed as Homo sapiens) [compound 132] | “+++” (≧50 = +++)
222 (NLIENVQRL; listed as Homo sapiens) [compound 222] | “++” (≧20% = ++)
193 (QLLDADGFLNV; listed as Homo sapiens) [compound 193] | “+++” (≧50 = +++)
26 (ALLELAEEL; listed as Homo sapiens) [compound 26] | “+++” (≧50 = +++)
196 (YLYSVEIKL; listed as Homo sapiens) [compound 196] | “++++” (≧75% = ++++)
261 (YVLEFLEEI; listed as Homo sapiens) [compound 261] | “++” (≧20% = ++)
14 (AAYGGLNEKSFV; listed as Homo sapiens) [compound 14] | “+++” (≧50 = +++)
54 (SLLEQGKEPWMV; listed as Homo sapiens) [compound 54] | “+++” (≧50 = +++)
221 (ALYEEGLLL; listed as Homo sapiens) [compound 221] | “++” (≧20% = ++)
115 (AIAGAGILYGV; listed as Homo sapiens) [compound 115] | “++” (≧20% = ++)
129 (GLLDGGVDILL; listed as Homo sapiens) [compound 129] | “+++” (≧50 = +++)
239 (AAFAGKLLSV; listed as Homo sapiens) [compound 239] | “+++” (≧50 = +++)
51 (LLPDLEFYV; listed as Homo sapiens) [compound 51] | “++++” (≧75% = ++++)
92 (YLIPFTGIVGL; listed as Homo sapiens) [compound 92] | “++” (≧20% = ++)
104 (STMEQNFLL; listed as Homo sapiens) [compound 104] | “++++” (≧75% = ++++)
139 (SVMEVNSGIYRV; listed as Homo sapiens) [compound 139] | “+++” (≧50 = +++)
151 (KILQQLVTL; listed as Homo sapiens) [compound 151] | “+++” (≧50 = +++)
32 (KLDDLTQDLTV; listed as Homo sapiens) [compound 32] | “++” (≧20% = ++)

The next lines start with the values.

Peptide exchange | Substance
“+++” (≧50 = +++) | 500 (SLMEDQVLQL; listed as Homo sapiens) [compound 500]
“+++” (≧50 = +++) | 488 (FLAEDPKVTL; listed as Homo sapiens) [compound 488]
“+++” (≧50 = +++) | 490 (FLLQHVQEL; listed as Homo sapiens) [compound 490]
“+++” (≧50 = +++) | 571 (LLLTTIPQI; listed as Homo sapiens) [compound 571]
“+++” (≧50 = +++) | 343 (SLLEVNEESTV; listed as Homo sapiens) [compound 343]
“+++” (≧50 = +++) | 394 (LLAVIGGLVYL; listed as Homo sapiens) [compound 394]
“++++” (≧75% = ++++) | 620 (KLLNKIYEA; listed as Homo sapiens) [compound 620]
“+++” (≧50 = +++) | 317 (SLAALVVHV; listed as Homo sapiens) [compound 317]
“+++” (≧50 = +++) | 449 (KLAEGLDIQL; listed as Homo sapiens) [compound 449]
“+++” (≧50 = +++) | 498 (KLWTGGLDNTV; listed as Homo sapiens) [compound 498]
“+++” (≧50 = +++) | 609 (ALWKQLLEL; listed as Homo sapiens) [compound 609]
“+++” (≧50 = +++) | 492 (SLFDGFADGLGV; listed as Homo sapiens) [compound 492]
“+++” (≧50 = +++) | 307 (ALPVSLPQI; listed as Homo sapiens) [compound 307]
“++” (≧20% = ++) | 524 (ALIENLTHQI; listed as Homo sapiens) [compound 524]
“++++” (≧75% = ++++) | 337 (HLLSELEAAPYL; listed as Homo sapiens) [compound 337]
“+++” (≧50 = +++) | 313 (VLFDDELLMV; listed as Homo sapiens) [compound 313]
“++++” (≧75% = ++++) | 602 (YLLEQIKLIEV; listed as Homo sapiens) [compound 602]
“+++” (≧50 = +++) | 399 (YLFEPLYHV; listed as Homo sapiens) [compound 399]
“+++” (≧50 = +++) | 386 (ILFRYPLTI; listed as Homo sapiens) [compound 386]
“+++” (≧50 = +++) | 596 (ALLDQTKTLAESAL; listed as Homo sapiens) [compound 596]
“++” (≧20% = ++) | 408 (VLDDSIYLV; listed as Homo sapiens) [compound 408]

Peptide exchange | Substance
“++++” (≧75% = ++++) | 387 (ALFQATAEV; listed as Homo sapiens) [compound 387]
“++” (≧20% = ++) | 510 (KLYSVVSQL; listed as Homo sapiens) [compound 510]
“+++” (≧50 = +++) | 362 (TLYGLSVLL; listed as Homo sapiens) [compound 362]
“++” (≧20% = ++) | 373 (SLLEDKGLAEV; listed as Homo sapiens) [compound 373]
“++” (≧20% = ++) | 403 (KLYDRILRV; listed as Homo sapiens) [compound 403]
“+++” (≧50 = +++) | 528 (SVAEGRALMSV; listed as Homo sapiens) [compound 528]
“+++” (≧50 = +++) | 335 (YSLSSVVTV; listed as Homo sapiens) [compound 335]
“++++” (≧75% = ++++) | 358 (ALDEYTSEL; listed as Homo sapiens) [compound 358]
“+++” (≧50 = +++) | 288 (NLINEINGV; listed as Homo sapiens) [compound 288]
“++” (≧20% = ++) | 389 (LLADVTHLL; listed as Homo sapiens) [compound 389]
“+++” (≧50 = +++) | 322 (TLMTSLPAL; listed as Homo sapiens) [compound 322]
“+++” (≧50 = +++) | 561 (YLQLTQSEL; listed as Homo sapiens) [compound 561]
“+++” (≧50 = +++) | 592 (RLLSAAENFL; listed as Homo sapiens) [compound 592]
“++” (≧20% = ++) | 355 (SIQQSIERLLV; listed as Homo sapiens) [compound 355]
“+++” (≧50 = +++) | 515 (LLQELVLFL; listed as Homo sapiens) [compound 515]
“+++” (≧50 = +++) | 370 (SLLQDLVSV; listed as Homo sapiens) [compound 370]
“+++” (≧50 = +++) | 508 (ILAQEQLVVGV; listed as Homo sapiens) [compound 508]
“+++” (≧50 = +++) | 531 (YTLPIASSIRL; listed as Homo sapiens) [compound 531]
“+++” (≧50 = +++) | 604 (SILDRDDIFV; listed as Homo sapiens) [compound 604]
“+++” (≧50 = +++) | 439 (YLLQEIYGI; listed as Homo sapiens) [compound 439]
“+++” (≧50 = +++) | 457 (SLLPGNLVEKV; listed as Homo sapiens) [compound 457]

From US20170002055A1, “Novel peptides and combination of peptides for use in immunotherapy against ovarian cancer and other cancers” (immatics biotechnologies GmbH, priority 2015, published 2017)
